Laboratory results: PMC12731327, “Structural Analysis of the Putative Succinyl-Diaminopimelic Acid Desuccinylase DapE from Campylobacter jejuni: Captopril-Mediated Structural Stabilization” (Current Issues in Molecular Biology, 2025)

Molecular target: the molecule itself
Assay: SEC; 100 μg tag-free cjDapE on Superdex 200 10/300, 20 mM Tris pH 8.0, 150 mM NaCl, 5 mM β-mercaptoethanol; size by calibration with gel-filtration standards

B1: Campylobacter jejuni DapE (N-succinyl-L,L-diaminopimelic acid desuccinylase) (enzyme, UniProt Q0P9K4 1-365, looked up)
chain: MNAKEFLIELLKFKSVTPNDDGALNFIAMELSDFEAFFIEKEGIKNLLLTKKFKDEGEHLAFGGHVDVVPAGEGWSNNAFAPVEKEGFIYARGAQDMKSGVAAFVDAAKNADFKGARLSLILTSDEEGEAIYGTKAVLEWMQERDMLPDYAVVAEPTCVKKIGDSIKIGRRGSINGKLLIRGKQGHVAYPEKCINPVHDFAPVLKLLAGFDLDPGSAEFSPSKIVITDIRGGMGVCNVTPNDLKLMFNVRNSPDTSLEDVKSYVEKICHGLNYELELKQSSEAFLTNIDNKIVQKMNESVQKITHEVPELNTKGGTSDARYFAKYGVKVVEFGVCNDRIHAIDERVSIEEFEKLCLVFKDLIENF
notes: DapE of Campylobacter jejuni (ATCC 33291 genomic DNA), gene dapE (cj1048c), 365-residue protein, residues 1-365; in one crystal also captopril; The His6 tag was removed with thrombin; also called cjDapE; cjDapEZn; source: E. coli BL21 (DE3), purified (Ni-NTA, thrombin cleavage, Mono Q anion exchange); not shown: His6, N-terminal, cleaved
  stoichiometry N: 2
